Data on one substance can be found in patent US20170342349A1, “STABILIZED ENZYME COMPOSITIONS” (NOVOZYMES A/S, priority 2014, published 2017).

Assay [1] addresses Protease C (SEQ ID NO 6) (Lederbergia lenta (Bacillus lentus)) (UniProt P29600). The experiment in a line: Ki fitted from Suc-AAPF-pNA activity in Model B detergent; IF relative to SEQ ID NO 6 (the reference itself).
Assay [2] has as its target TY145 (SEQ ID NO 3) variant I150N + S173P + S175P + F180Y. The experiment in a line: Ki fitted from Suc-AAPF-pNA activity in Model B detergent; IF relative to SEQ ID NO 3 comprising S173P + S175P + F180Y.
The target in assay [3] is TY145 (SEQ ID NO 3) variant I150V + S173P + S175P + F180Y. The assay is described as above.
Assay [4] deals with TY145 (SEQ ID NO 3) variant K146A + S173P + S175P + F180Y. The description is as above.
For assay [5], the target named is TY145 (SEQ ID NO 3) variant K146N + S173P + S175P + F180Y. The description is as above.
The target in assay [6] is TY145 (SEQ ID NO 3) variant K146S + S173P + S175P + F180Y. Described as above.
Assay [7] concerns the target TY145 (SEQ ID NO 3) variant K146W + S173P + S175P + F180Y. The assay is described as above.
The target in assay [8] is TY145 (SEQ ID NO 3) variant Q70H + S173P + S175P + F180Y. The assay is described as above.
Assay [9] addresses TY145 (SEQ ID NO 3) variant Q70Y + S173P + S175P + F180Y. The description is as above.
For assay [10], the target named is TY145 (SEQ ID NO 3) variant S114A + S173P + S175P + F180Y. Described as above.
The target of assay [11] is TY145 (SEQ ID NO 3) variant S114F + S173P + S175P + F180Y. Described as above.
Assay [12] deals with TY145 (SEQ ID NO 3) variant S173P + S175P + F180Y + G182A. The description is as above.
For assay [13], the target named is TY145 (SEQ ID NO 3) variant S173P + S175P + F180Y + G182S. Described as above.
Assay [14] addresses TY145 (SEQ ID NO 3) variant S173P + S175P + F180Y + L184D. Described as above.
In assay [15] the target is TY145 (SEQ ID NO 3) variant S173P + S175P + F180Y + L184F. The description is as above.
Assay [16] addresses TY145 (SEQ ID NO 3) variant S173P + S175P + F180Y + L184W. The assay is described as above.
Assay [17] has as its target TY145 (SEQ ID NO 3) variant S173P + S175P + I178P + F180Y. Described as above.
In assay [18] the target is TY145 (SEQ ID NO 3) variant S173P + S175P. Nature of the assay: Ki fitted from Suc-AAPF-pNA activity in Model B detergent; IF relative to SEQ ID NO 3 comprising S173P + S175P (the reference itself).
The target in a further assay is TY145 (SEQ ID NO 3). The experiment in a line: Ki fitted from Suc-AAPF-pNA activity at 8 inhibitor concentrations in Model B detergent; IF relative to SEQ ID NO 3 (the reference itself).
In assay [19] the target is TY145 (SEQ ID NO 3) variant S173P + S175P + F180Y. The experiment in a line: Ki fitted from Suc-AAPF-pNA activity in Model B detergent; IF relative to SEQ ID NO 3 comprising S173P + S175P + F180Y (the reference itself).

Sequence of TY145 (SEQ ID NO 3) (chain, as listed by the source limits assumed): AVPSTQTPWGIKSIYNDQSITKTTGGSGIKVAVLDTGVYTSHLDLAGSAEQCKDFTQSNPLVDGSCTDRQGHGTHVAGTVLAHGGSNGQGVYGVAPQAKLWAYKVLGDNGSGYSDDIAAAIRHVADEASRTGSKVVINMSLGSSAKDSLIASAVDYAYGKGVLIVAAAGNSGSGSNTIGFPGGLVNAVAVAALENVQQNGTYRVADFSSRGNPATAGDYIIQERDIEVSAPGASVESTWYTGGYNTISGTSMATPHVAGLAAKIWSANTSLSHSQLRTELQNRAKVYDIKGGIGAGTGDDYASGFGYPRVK
Sequence of TY145 (SEQ ID NO 3) variant S173P + S175P + F180Y (chain, as listed by the source S173P S175P F180Y S173P S175P F180Y limits assumed): as the sequence (chain, as listed by the source limits assumed) above, with S173P, S175P, F180Y counted along it
Sequence of TY145 (SEQ ID NO 3) variant S173P + S175P (chain, as listed by the source S173P S175P S173P S175P limits assumed): as the sequence (chain, as listed by the source limits assumed) above, with S173P, S175P counted along it
Sequence of TY145 (SEQ ID NO 3) variant Q70Y + S173P + S175P + F180Y (chain, as listed by the source Q70Y S173P S175P F180Y Q70Y S173P S175P F180Y limits assumed): as the sequence (chain, as listed by the source limits assumed) above, with Q70Y, S173P, S175P, F180Y counted along it
Sequence of TY145 (SEQ ID NO 3) variant Q70H + S173P + S175P + F180Y (chain, as listed by the source Q70H S173P S175P F180Y Q70H S173P S175P F180Y limits assumed): as the sequence (chain, as listed by the source limits assumed) above, with Q70H, S173P, S175P, F180Y counted along it

With “Inhibitor 1: Cbz-Gly-Ala-NHCH(CH2C6H4pOH)C(OH)(SO3Na)-H (peptide)”, the IF (binding constant improvement factor, relative Ki) in assay [1] worked out at 1; in assay [2], 3.58; in assay [3], 1.8; in assay [4] it was 3.72; in [5], 1.36; in assay [6], 1.13. Besides, the IF (binding constant improvement factor, relative Ki) in [7] amounted to 5.47; in assay [8], 3.78; in assay [9] it was 7.44; in [10], 3.33; in assay [11], 1.41; in [12], 2.49. Besides, the IF (binding constant improvement factor, relative Ki) in assay [13] worked out at 1.69; in assay [14], 3.28; in [15] it was 4.28; in [16], 2.23; in [17], 2.22; in [18] it was 1. Besides, the IF (binding constant improvement factor, relative Ki) (with TY145 (SEQ ID NO 3); in assay [19]) was 1 each time.
